According to patent US11702666B2, “Cell-based assay for determining activity in the retinoblastoma pathway” (Medical Diagnostic Laboratories, LLC, priority 2017, dated 2023):
Like-named read-outs stand apart in the source and are kept apart here.

B1: CDK4 R24A: CDK4 mutant, literature hyperactive (protein)
chain: ATSRYEPVAEIGVGAYGTVYKAADPHSGHFVALKSVRVPNGGGGGGGLPISTVREVALLRRLEAFEHPNVVRLMDVCATSRTDREIKVTLVFEHVDQDLRTYLDKAPPPGLPAETIKDLMRQFLRGLDFLHANCIVHRDLKPENILVTSGGTVKLADFGLARIYSYQMALTPVVVTLWYRAPEVLLQSTYATPVDMWSVGCIFAEMFRRKPLFCGNSEADQLGKIFDLIGLPPEDDWPRDVSLPRGAFPPRGPRPVQSVVPEMEESGAQLLLEMLTFNPHKRISAFRALQHSYLHKDEGNPE

Assays:
[1] = molecular target: T1, CDK6 (Homo sapiens, UniProt Q00534, R31C); assay: p16 activity assay with CDK6 (NanoBiT, cell line #11); assay type: cell-based; details: compared to WT CDK6
T1 construct: expressed in transfected cells; host or cells: HEK293 CDK4/CDK6 double-knockout cells stably expressing E2F1-Dp-1-LB (clone #11); early experiments in plain HEK293
Source text: (§1) We developed an assay that could measure the interaction between Rb, E2F1 and Dp-1. When the Rb and E2F1 proteins are in close proximity or in complex, a light signal is observed. For the purpose of the assay, split-luciferase complementation was used to measure the interaction between Rb and E2F1, which served as a surrogate measure of CDK4/6 activity and the ability of CDK4/6 to respond to the natural inhibitor p16. The NanoBiT assay system by Promega (Madison, Wis.; Dixon et al., 2015, ACS ChemBiol) was used in the split luciferase complementation design. FIG. 24 depicts a design of a signal system to measure p16 activity. Under basal conditions inside the cell, Rb is active and interacts with the E2F1/Dp-1 heterodimer. However, in the presence of the CDK4 or CDK6, Rb gets phosphorylated and released from the interacting complex. In the presence of the natural inhibitor p16, CDK4/6 is no longer available to phosphorylate Rb and thus promoting the Rb/E2F1-Dp-1 complex formation.
For the purpose of the current assay, the stable cell line #11 that we generated for the CDK activity assay was used and described above. HEK293 CDK DKO cells containing E2F1-Dp-1-LB was transiently transfected with CDK4/CDK6, CyclinD1, and SB-Rb. The transfected cells were then exposed to the natural inhibitor p16 (FIG. 25). […]

[2] = tested on: Rb/E2F1-Dp-1 complex; details: CDK6 mutants, literature ref.; Hyper = hyperactive, KD = kinase dead; cited from earlier work
[3] = tested on: Rb/E2F1-Dp-1 complex; assay: CDK6 mutant activity / drug resistance in NanoBiT assay, stable cell line #11; assay type: cell-based, human; details: CDK6 mutants
Method: (§2) A linear expression cassette of mutated CDK4 or CDK6 was generated by PCR mediated overlapping extension method. A pair of forward and reverse primers containing the targeted mutations was designed. The mutated codon was located in the middle of a primer flanked by 18-21 nucleotides on each side. Two PCRs (named as PCR #1 and PCR #2 in FIG. 1) were performed using UF-CMV forward and mutated reverse primers, or mutated forward and BGH-UR primers. The PCR products were cleaned up by ExoSAP-IT® (Affymetrix) to remove unconsumed dNTPs and primers. The treated PCR products were mixed together followed by dilution with water. A second round of PCR was performed using the diluted PCR mixture, and the UF and UR primers (FIG. 1). The amplified products were gel-purified. The DNA concentration was quantitated by the optical density at 260 nm using Nanodrop. The targeted mutations were incorporated in the CDK4 or CDK6 genes during the PCR mediated overlapping extension method. The introduced mutations were confirmed by the DNA sequencing.
(§3) To examine the ability of the assay to detect variants in CDK4 or CDK6 that affect function, kinase dead mutants and COSMIC (Catalogue Of Somatic Mutations in cancer) unknown mutants were created. For comparison, hyperactive CDK4 or CDK6 mutants known to be hyperactive due to less binding to natural inhibitor p16 were also created. The mutations in CDK4 or CDK6 were created by site-directed mutagenesis. WT or mutated CDK4 or CDK6 along with the CyclinD1 and SB-Rb were co-transfected, under similar conditions as previously indicated (see FIG. 9).
(§4) Computer modeling was used to reveal the drug-binding pocket and predict drug-resistant mutants. The mutations in CDK4 and CDK6 were created by site-directed mutagenesis. WT or mutated CDK4 or CDK6 along with the CyclinD1 and SB-Rb was co-transfected into #11 cell line, under the same conditions as previously indicated. […] Dose response curves are presented on FIG. 13A and FIG. 13B. Activity of other mutants was very similar to the WT or KD.
(§5) CDK4 and CDK6 mutants with known function and unknown function taken from the COSMIC database were analyzed in the present assay and are summarized in Table 7A and Table 7B. The mutants were classified according to their activity. Table 7A and Table 7B also show the number of counts per mutant in the COSMIC database, type of cancer, and luciferase activity compared to the WT (being 100%).

[4] = molecular target: T2, CDK4 (Homo sapiens, UniProt P11802, R24A); assay: p16 activity assay with CDK4 (NanoBiT, cell line #11); assay type: cell-based; details: compared to WT CDK4
T2 construct: expressed in transfected cells; host or cells: HEK293 CDK4/CDK6 double-knockout cells stably expressing E2F1-Dp-1-LB (clone #11); early experiments in plain HEK293
Source text: as §1
For the purpose of the current assay, the stable cell line #11 that we generated for the CDK activity assay was used and described above. HEK293 CDK DKO cells containing E2F1-Dp-1-LB was transiently transfected with CDK4/CDK6, CyclinD1, and SB-Rb. The transfected cells were then exposed to the natural inhibitor p16 (FIG. 25). When CDK4 or CDK6 is present, a decrease in activity was observed as Rb gets phosphorylated resulting in no Rb/E2F1-Dp-1 interaction. […] The data presented was a sample experiment where each condition was performed in triplicate and represented mean+SD.
The conditions of the assay were optimized by using different p16 amounts and cell numbers (FIGS. 25A and 25B). Based on the data generated, it was decided that using 0.2×10^6 cells/ml and 10 ng of p16 would be preferable.
To examine the ability of the assay to detect variants in CDKN2A that affect function, known loss of function mutants and unknown COSMIC mutants were created. Wild-type or mutated CDKN2A were prepared in a manner similar to that previously indicated. […] Therefore the p16 activity assay is capable of determining the relative activity level of p16 mutants. The data provided is in Luminescence (RLU) of a single experiment with each condition performed in triplicate and represent average+SD. Summary Table 13 reports p16 mutants tested.
In addition to check functional state of p16 mutants, p16 activity assay can be used to look at p16 inhibition response of different CDK4 and CDK6 mutants. Different response of WT CDK4 and CDK6 and hyperactive mutants of CDK4 (R24A) and CDK6 (R31C) is shown on FIG. 28. […] The p16 activity assay is so sensitive and specific that hyperactive CDK4 and CDK6 mutants can show different response to mutant p16.

[5] = tested on: Rb/E2F1-Dp-1 complex; assay: CDK4 mutant activity / drug resistance in NanoBiT assay, stable cell line #11; assay type: cell-based, human; details: CDK4 mutants, compared to the WT (being 100%)
Method: as §2, §3
To examine the specificity of the assay, particular CDK4 kinase dead mutants were created. Modifications to D158 were made by changing aspartate to nonpolar alanine (D158A) or positively charged arginine (D158R). […] The mutations in CDK4 were created by site-directed mutagenesis. WT or mutated CDK4 along with the CyclinD1 and SB-Rb was co-transfected into the #11 cell line, under the same conditions as previously indicated. […] Kinase dead mutants have the high signal due to inability to phosphorylate Rb.
as §4, §5

[6] = tested on: Rb/E2F1-Dp-1 complex; details: CDK4 mutants, literature ref.; Hyper = hyperactive, KD = kinase dead; cited from earlier work

T1 sequence (Q00534 whole entry R31C): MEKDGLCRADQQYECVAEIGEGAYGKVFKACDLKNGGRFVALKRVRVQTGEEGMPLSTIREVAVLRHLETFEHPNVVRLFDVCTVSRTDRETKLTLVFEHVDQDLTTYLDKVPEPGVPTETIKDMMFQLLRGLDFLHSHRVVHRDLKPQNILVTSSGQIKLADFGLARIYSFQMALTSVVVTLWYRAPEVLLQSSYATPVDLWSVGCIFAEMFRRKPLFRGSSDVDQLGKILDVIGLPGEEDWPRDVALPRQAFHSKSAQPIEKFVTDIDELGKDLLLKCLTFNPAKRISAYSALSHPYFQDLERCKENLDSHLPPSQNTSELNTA

Molecule	p16 inhibition response of hyperactive CDK6 mutant (luminescence) [1]	Reported activity [2]	Luc activity (/wt) ([3]; compared to the WT (being 100%)) [%]	luciferase signal compared to WT CDK6 (in words) ([3]; no drug)	p16 inhibition response of hyperactive CDK4 mutant (luminescence) [4]	Luc. activity (/wt) [5] [%]	Reported activity [6]
CDK6 R31C: CDK6 mutant, literature hyperactive	decreased level of luminescence	Hyper	66	a little bit lower basal signal than WT	–	–	–
B1	–	–	–	–	decreased level of luminescence	79	Hyper
